Experimental data: patent publication US20190338002A1 (Pieris, published 2019)

What was measured:
[1] = target: T1, human alpha CGRP (SEQ ID NO: 80) (human, not fully specified); experiment: SPR, 37 C, mutein captured, CGRP analyte
T1 construct: also called human αCGRP; hαCGRP
T1 peptide: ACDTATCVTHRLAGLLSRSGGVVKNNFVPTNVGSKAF
Method: (§1) The Biotin CAPture Kit (GE Healthcare) was used to immobilize biotinylated lipocalin muteins to a chip surface. Muteins were biotinylated using standard NHS chemistry. Undiluted Biotin CAPture Reagent (streptavidin conjugated with ss-DNA oligo) was captured on a Sensor Chip CAP with the pre-immobilized complementary ss-DNA oligo. Thereafter, biotinylated muteins at 1 μg/mL were applied for 300 s at a flow rate of 5 μL/min.
(§2) CGRP species were applied in three concentrations of 30 nM, 3 nM and 0.3 nM at a flow rate of 30 μL/min or in a single concentration of 25 nM per cycle as shown in FIG. 2. The dilutions were injected with association times of 180 s and dissociation times of 5400 sec to obtain ka and kd information. Regeneration of the chip surface was achieved by injecting 6 M Guanidinium-HCl+0.25 M NaOH (120 s) with a flow rate of 10 μL/min. Injection of regeneration solutions was followed by an extra wash step with HBS-EP+(1×; BR-1006-69; GE Healthcare) running buffer and a stabilization period of 120 s.
(§3) The data were double-referenced by subtraction of the corresponding signals measured for the control channel (loaded with Biotin CAPture reagent only) and by subtraction of buffer injections from the binding responses. Association rate constant ka and dissociation rate constant kd for the binding reaction were determined using Biacore T200 Evaluation Software V2.0 for data processing and kinetic fitting. The data were globally fit with 1:1 binding model.

[2] = target: T2, human beta CGRP (SEQ ID NO: 81) (human, not fully specified); experiment: SPR, 37 C, mutein captured, CGRP analyte
T2 construct: also called human βCGRP; hβCGRP
T2 peptide: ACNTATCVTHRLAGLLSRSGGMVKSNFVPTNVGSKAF
Method: as §1, §2, §3

[3] = target: T3, rat alpha CGRP (SEQ ID NO: 82) (rat); experiment: SPR, 37 C, mutein captured, CGRP analyte
T3 construct: also called rat αCGRP; rat α-CGRP
T3 peptide: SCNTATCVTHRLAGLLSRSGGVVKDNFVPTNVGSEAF
Method: as §1, §2, §3

[4] = target: T4, rat beta CGRP (SEQ ID NO: 83) (rat, not fully specified); experiment: SPR, 37 C, mutein captured, CGRP analyte
T4 construct: also called rat βCGRP; rat β-CGRP
T4 peptide: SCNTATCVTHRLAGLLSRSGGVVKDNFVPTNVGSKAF
Method: as §1, §2, §3

[5] = target: T1, human alpha CGRP (SEQ ID NO: 80); experiment: cell-based or functional assay
[6] = target: T2, human beta CGRP (SEQ ID NO: 81); experiment: cell-based or functional assay
[7] = target: T3, rat alpha CGRP (SEQ ID NO: 82); experiment: cell-based or functional assay
[8] = target: T4, rat beta CGRP (SEQ ID NO: 83); experiment: cell-based or functional assay
[9] = target: T1, human alpha CGRP (SEQ ID NO: 80); experiment: SPR Biacore 37 °C, mutein captured as ligand, sample PL1827 (ha CGRP) injected, 1:1 fit; repeat run 130903_NAN-DS-058 (not the run of Table 2) [contd]
Method: as §1, §2, §3

[10] = target: T4, rat beta CGRP (SEQ ID NO: 83); experiment: SPR Biacore 37 °C, mutein captured as ligand, rb CGRP (1-37) injected, 1:1 fit; repeat run 130208_NAN-DS-047 (not the run of Table 2) [contd]
Method: as §1, §2, §3

[11] = target: T2, human beta CGRP (SEQ ID NO: 81); experiment: SPR Biacore 37 °C, mutein captured as ligand, hb CGRP (1-37) injected, 1:1 fit; repeat run 130208_NAN-DS-047 (not the run of Table 2) [contd]
Method: as §1, §2, §3

[12] = target: T1, human alpha CGRP (SEQ ID NO: 80); experiment: SPR Biacore 37 °C, mutein captured as ligand, ha CGRP (1-37) injected, 1:1 fit; repeat run 130208_NAN-DS-047 (not the run of Table 2) [contd]
Method: as §1, §2, §3

[13] = target: T3, rat alpha CGRP (SEQ ID NO: 82); experiment: SPR Biacore 37 °C, mutein captured as ligand, ra CGRP (1-37) injected, 1:1 fit; repeat run 130208_NAN-DS-047 (not the run of Table 2) [contd]
Method: as §1, §2, §3

[14] = target: T1, human alpha CGRP (SEQ ID NO: 80); experiment: SPR, Biacore T200, 37 C; biotinylated mutein captured, human alpha CGRP analyte
Method: as §1, with “to immobilized” for “to immobilize”, “chemistry. Fifty-fold diluted” for “chemistry. Undiluted”, “at 200 nM” for “at 1 μg/mL”, “for 60” for “for 300”, “of 10” for “of 5”
The dilutions were injected with association times of 600 s and dissociation times of 1800 s. Regeneration of the chip surface was achieved by injecting 6 M Guanidinium-HCl+0.25 M NaOH (120 s) with a flow rate of 10 μL/min, followed by injecting 30% acetonitrile+0.25 M NaOH (120 s) with a flow rate of 10 μL/min. Injection of regeneration solutions was followed by an extra wash step with HBS-EP+ running buffer and a stabilization period of 60 s.
as §3, with “version 1.0” for “V2.0”

[15] = target: T1, human alpha CGRP (SEQ ID NO: 80); experiment: cell-based or functional assay

B1: lipocalin mutein SEQ ID NO: 14 (designed binder)
chain: QDSTSDLIPAPPLSKVPLQQNFQDNQFHGKWYVVGRAGNDALREDKDPEKMEATIYELKEDKSYNVTDVGFVQKKCMYVIHTFVPGSQPGEFTLGNIKSYPGVTSALVRVVSTNYNQHAMVFFKLVKQNRELFEITLYGRTKELTSELKENFIRFSKSLGLPENHIVFPVPIDQCIDGSAWSHPQFEK
notes: biotinylated by NHS chemistry for capture in SPR
- Kd [1]: 55 pM
- koff [1]: 0.000141 s⁻¹
- kon [1]: 2.56e+06 M⁻¹ s⁻¹
- Kd [2]: 31 pM
- koff [2]: 0.000141 s⁻¹
- kon [2]: 4.56e+06 M⁻¹ s⁻¹
- Kd [3]: 290 pM
- koff [3]: 0.000339 s⁻¹
- kon [3]: 1.19e+06 M⁻¹ s⁻¹
- Kd [4]: 107 pM
- koff [4]: 0.000181 s⁻¹
- kon [4]: 1.69e+06 M⁻¹ s⁻¹
- IC50, CGRP-induced cAMP production, SK-N-MC cells [5]: 150 pM
- IC50, CGRP-induced cAMP production, SK-N-MC cells [6]: 1500 pM
- IC50, CGRP-induced cAMP production, L6 cells [7]: 120 pM
- IC50, CGRP-induced cAMP production, L6 cells [8]: 90 pM
- koff [9]: 0.000183 s⁻¹
- kon [9]: 3.44e+06 M⁻¹ s⁻¹

B2: lipocalin mutein SEQ ID NO: 15 (designed binder)
chain: QDSTSDLIPAPPLSKVPLQQNFQDNQFHGKWYVVGRAANDRLREDKDPEKMEATIYELKEDKSYNVTDVGFSRKKCIYVIHTFVPGSQPGEFTLGNIKSYPGTTSGLVRVVSTNYNQHAMVFFKVVGQNRESFEITLYGRTKELTSELKENFIRFSKSLGLPENHIVFPVPIDQCIDGSAWSHPQFEK
notes: as for B1
- koff [10]: 0.000178 s⁻¹
- kon [10]: 2.31e+06 M⁻¹ s⁻¹
- Kd [1]: 38 pM
- koff [1]: 0.000238 s⁻¹
- kon [1]: 6.32e+06 M⁻¹ s⁻¹
- Kd [2]: 18 pM
- koff [2]: 0.000273 s⁻¹
- kon [2]: 1.53e+07 M⁻¹ s⁻¹
- Kd [3]: 170 pM
- koff [3]: 0.000274 s⁻¹
- kon [3]: 1.59e+06 M⁻¹ s⁻¹
- Kd [4]: 39 pM
- koff [4]: 0.000193 s⁻¹
- kon [4]: 4.98e+06 M⁻¹ s⁻¹
- koff [11]: 0.000309 s⁻¹
- kon [11]: 1.22e+07 M⁻¹ s⁻¹
- koff [12]: 0.000256 s⁻¹
- kon [12]: 5.23e+06 M⁻¹ s⁻¹
- koff [13]: 0.000295 s⁻¹
- kon [13]: 1.38e+06 M⁻¹ s⁻¹

B3: tag-free lipocalin mutein SEQ ID NO: 88 (designed binder)
chain: GQDSTSDLIPAPPLSKVPLQQNFQDNQFHGKWYVVGRAGNDVLREDKDPEKMEATIYELKEDKSYNVTDVGFVQKRCMYVTHTFVPGSQPGEFTLGNIESYPGVTSALVRVVSTDYNQHAMVFVKLVKQNRELFEITLYGRTKELTSELKENFIRFSKSLGLPENHIVFPVPIDQCIDG
notes: biotinylated by NHS chemistry for capture in SPR; also called tag-free mutein 88
- Kd [14]: 8 pM
- cAMP assay IC50 [15]: 170 pM

B4: tag-free lipocalin mutein SEQ ID NO: 92 (designed binder)
chain: GQDSTSDLKPAPPLSKVPLQQNFQDNQFHGKWYVVGRAGNDVLREDKDPEKMEATIYELKEDKSYQVTDVGFVQKRCMYVTHTFVPGSQPGEFTLGNIESYPGVTSALVRVVSTDYNQHAMVFVKLVKQNRELFEITLYGRTKELTSELKENFIRFSKSLGLPENHIVFPVPIDQCIDD
notes: biotinylated by NHS chemistry for capture in SPR; also called tag-free mutein 92
- Kd [14]: 10 pM
- cAMP assay IC50 [15]: 180 pM

B5: tag-free lipocalin mutein SEQ ID NO: 90 (designed binder)
chain: GQDSTSDLKPAPPLSKVPLQQNFQDNQFHGKWYVVGRAGNDVLREDKDPEKMEATIYELKEDKSYNVTDVGFVQKRCMYVTHTFVPGSQPGEFTLGNIESYPGVTSALVRVVSTDYNQHAMVFVKLVKQNRELFEITLYGRTKELTSELKENFIRFSKSLGLPENHIVFPVPIDQCIDG
notes: biotinylated by NHS chemistry for capture in SPR; also called tag-free mutein 90
- Kd [14]: 12 pM
- cAMP assay IC50 [15]: 160 pM

B6: tag-free lipocalin mutein SEQ ID NO: 89 (designed binder)
chain: GQDSTSDLIPAPPLSKVPLQQNFQDNQFHGKWYVVGRAGNDVLREDKDPEKMEATIYELKEDKSYQVTDVGFVQKRCMYVTHTFVPGSQPGEFTLGNIESYPGVTSALVRVVSTDYNQHAMVFVKLVKQNRELFEITLYGRTKELTSELKENFIRFSKSLGLPENHIVFPVPIDQCIDD
notes: biotinylated by NHS chemistry for capture in SPR; also called tag-free mutein 89
- Kd [14]: 6 pM
- cAMP assay IC50 [15]: 170 pM

B7: tag-free lipocalin mutein SEQ ID NO: 91 (designed binder)
chain: GQDSTSDLIHAPPLSKVPLQQNFQDNQFHGKWYVVGRAGNDVLREDKDPEKMEATIYELKEDKSYNVTDVGFVQKRCMYVTHTFVPGSQPGEFTLGNIESYPGVTSALVRVVSTDYNQHAMVFVKLVKQNRELFEITLYGRTKELTSELKENFIRFSKSLGLPENHIVFPVPIDQCIDG
notes: biotinylated by NHS chemistry for capture in SPR; also called tag-free mutein 91
- Kd [14]: 10 pM
- cAMP assay IC50 [15]: 160 pM

B8: tag-free lipocalin mutein SEQ ID NO: 93 (designed binder)
chain: GQDSTSDLIHAPPLSKVPLQQNFQDNQFHGKWYVVGRAGNDVLREDKDPEKMEATIYELKEDKSYQVTDVGFVQKRCMYVTHTFVPGSQPGEFTLGNIESYPGVTSALVRVVSTDYNQHAMVFVKLVKQNRELFEITLYGRTKELTSELKENFIRFSKSLGLPENHIVFPVPIDQCIDD
notes: biotinylated by NHS chemistry for capture in SPR; also called tag-free mutein 93
- Kd [14]: 11 pM
- cAMP assay IC50 [15]: 130 pM

B9: tag-free lipocalin mutein SEQ ID NO: 87 (designed binder)
chain: GQDSTSDLIPAPPLSKVPLQQNFQDNQFQGKWYVVGWAGNTLLREDKDPIKMQAMIYELKEDKSYNVTWVYFADKKINYHIETFVPGSQPGEFTLGTIKSYPGETPILVRVVSTNYNQHAMVFFKGVNQNREIFEIVLYGRTKELTNELKENFIRFSKSLGLPENHIVFPVPIDQEIDG
notes: biotinylated by NHS chemistry for capture in SPR; also called tag-free mutein 87
- Kd [14]: 81 pM
- cAMP assay IC50 [15]: 660 pM
